In data set [1] the target is bacterially produced mm PCDH15 EC9-MAD12 (Mus musculus). In words: SEC-SAXS.
Data set [2] has as its target hs PCDH15 EC1-3 G16D/N369D/Q370N (Homo sapiens).
For data set [3], the target named is mm PCDH15 EC1-MAD12 CD1-1 (Mus musculus). In words: SEC-MALS.
For data set [4] the target is unchanged. In words: SEC-MALS. This is another data set of the same source. In general terms: SEC sorts molecules by how far they enter the pores of the column.
Data set [5] deals with mm PCDH15 EC9-MAD12 (mammalian-expressed, glycosylated) (Mus musculus). The experiment in a line: SEC-MALS.
The data set “AUC” deals with the molecule itself. The experiment in a line: AUC.

Read-outs that look alike come from different tables or passages of the source.

A word on the stoichiometry N: it is a count of units in the complex or per binding partner. As to “bacterially produced mm PCDH15 EC9-MAD12 (domain or fragment)”, the stoichiometry N in data set [1] worked out at 2. Molecule “hs PCDH15 EC1-3 G16D/N369D/Q370N (domain or fragment)” yielded a stoichiometry N in data set [2] of 2. Turning to “mm PCDH15 EC1-MAD12 CD1-1 (domain or fragment)”, the stoichiometry N in data set [3] and in data set [4] was 2 in each case.

“mm PCDH15 EC9-MAD12 (mammalian-expressed, glycosylated) (domain or fragment)” showed a stoichiometry N in data set [5] of 2.

B1: hs PCDH15 EC2-3 WT (domain or fragment, Homo sapiens)
chain: NSPTFKHESYYATVNELTPVGTTIFTGFSGDNGATDIDDGPNGQIEYVIQYNPDDPTSNDTFEIPLMLTGNIVLRKRLNYEDKTRYFVIIQANDRAQNLNERRTTTTTLTVDVLDGDDLGPMFLPCVLVPNTRDCRPLTYQAAIPELRTPEELNPIIVTPPIQAIDQDRNIQPPSDRPGILYSILVGTPEDYPRFFHMHPRTAELSLLEPVNRDFHQKFDLVIKAEQDNGHPLPAFAGLHIEILDENN
The Kd is the constant that tells how readily two partners part at equilibrium. The low end stands for a tighter complex, the high end for a looser complex. On to B1, for which, in “AUC”, the Kd is below 1000 nM and the “stoichiometry N” value was found to be 2.

The values above are taken from article doi:10.1101/695502 (bioRxiv, 2019).
